Here are results for two molecules from patent publication US10251926B2, “Extract from indigo naturalis and a process for preparing the same” (Galderma S.A., priority 2015, dated 2019).

The subject of one assay is HaCaT. The assay is described as follows: HaCaT proliferation, MTT assay. In kind it is cell-based. The settings on record: Homo sapiens, 72 hours, unit nM.
For a further assay, the system named is ears of mice. The experiment in a line: Ear inflammation after intradermal injection of IL-22 (study 1, establishment of model). In kind it is in vivo, BABL/c mice. On the procedure: FIG. 3: Group and dosing for in vivo evaluation of extracts from Qingdai in IL-22 induced psoriasis model. Five studies were designed and outlined in study 1-5, respectively. In Study 1, 100 ng and 500 ng of IL-22 in 20 μL saline, i.d., were used for induction. In study 2-5, 500 ng of IL-22 in […], i.d., were used for induction.
FIG. 4: Figures illustrate ear inflammation after intradermal injection of IL-22. In the studies, ears of mice were injected intradermally and ear thickness was measured on days between injections.
BABL/c mice, male, body weight 19-22 g, purchased from Shanghai SLC AnimalCenter.
Intradermal injection of 20 μL PBS, either alone or containing 100 or 500 ng recombinant mouse IL-22 (eBiosience), was administered into the ears of anesthetized mice using a 30-gauge needle every other day for eleven days. Ear thicknesses were measured before injection on day 0 and thereafter on days without injections. Ear measurements were taken at the center of the ears using a digimatic micrometer caliper (Mitutoyo).
Results of ear thickness data were expressed as mean±S.E.M. AUC of ear swelling was calculated by the ear thickness data from day 0 to day 11, and analyzed by repeated-measured ANOVA methods with JMP® software. Cytokine protein and gene expression data were evaluated with a one-way ANOVA and followed by student's t-test for post-hoc analysis. […]

Method for HaCaT: HaCaT, a human epidermal keratinocyte line from The Second Military Medical University (SMMU), China, was cultured in DMEM containing 10% FBS.
HaCaT were seeded in 96-well plates at 4×10^4 cells/well overnight. Stausporine or test articles were then added into the culture and incubated at 37° C., 5% CO2 for 72 hours. After removal of the media, the cells in 96-well plates were exposed to 100 μL of MTT (0.5 mg/mL in DMEM containing 10% FBS per well and incubated for 3 hours at 37° C., 5% CO2. Subsequently, the supernatants were removed and 150 μL of DMSO were added to each well. The plate was incubated in the dark for 10 minutes and the absorbance at 492 nm was recorded immediately using Multiskan MK3microplate reader (Thermo Life Sciences, HK, China).
All IC50 values were determined by using Xlfit™ software (version 2.0) from ID
Background was defined in culture with cells treated with DMSO only and was subtracted for IC50 calculations.

For the molecule `CN[C@@H]1C[C@H]2O[C@@](C)([C@@H]1OC)n1c3ccccc3c3c4c(c5c6ccccc6n2c5c31)C(=O)NC4` [Staurosporine], the IC50 (usually the concentration needed to halve the response being measured) in the assay on HaCaT amounted to 3.18 nM.

B1: IL-22: Recombinant mouse IL-22, intradermal inducer of ear inflammation (protein, UniProt Q9JJY9 34-179, looked up)
Interleukin-22: LPVNTRCKLEVSNFQQPYIVNRTFMLAKEASLADNNTDVRLIGEKLFRGVSAKDQCYLMKQVLNFTLEDVLLPQSDRFQPYMQEVVPFLTKLSNQLSSCHISGDDQNIQKNVRRLKETVKKLGESGEIKAIGELDLLFMSLRNACV
In the case of B1, the “ear thickness (d 15)” value in the assay on ears of mice (study 1, IL-22 100 ng in 20 μL saline i.d., day 15) is 255.3 ± 15.1 μm; in the assay on ears of mice (study 1, IL-22 500 ng in 20 μL saline i.d., second value of the cell, day 15 as in the lines above), 296.3 ± 5.0 μm.
